Measured values: patent US20100330078A1 (Pfizer, published 2010)

Key:
Murine FcγRIII = target: T1, Murine FcγRIII (murine, UniProt P08508 31-215, limits assumed); test: Biacore, KD against 22B5 wild type IgG1
T1 construct: Construct not described; also called mFcγRIII
T1 sequence (looked up): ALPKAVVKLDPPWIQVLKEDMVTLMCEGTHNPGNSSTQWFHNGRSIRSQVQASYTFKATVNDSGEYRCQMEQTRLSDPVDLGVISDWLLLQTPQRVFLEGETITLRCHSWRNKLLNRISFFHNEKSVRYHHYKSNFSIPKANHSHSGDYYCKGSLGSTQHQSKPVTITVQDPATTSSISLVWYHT
Experimental: (§1) The ability of 22B5/DLE, which contains the IgG1 DLE triple mutations (as discussed previously in Example 2), to enhance binding to the FcγRs was evaluated in a Biacore binding experiment. The FcγR binding affinities of 22B5/DLE were compared with the binding affinity of wild type (wt) IgG1. […] The binding affinity comparison of 22B5/DLE and wild type IgG1 was also evaluated against the murine Fcγ receptors. The greatest enhancement in binding was to the mFcγRIV, followed by mFcγRI, and mFcγRIII (see FIG. 5).

Murine FcγRIV = target: T2, Murine FcγRIV (murine, UniProt A0A0B4J1G0 21-203); test: Biacore, KD against 22B5 wild type IgG1
T2 construct: Construct not described; also called mFcγRIV
T2 sequence: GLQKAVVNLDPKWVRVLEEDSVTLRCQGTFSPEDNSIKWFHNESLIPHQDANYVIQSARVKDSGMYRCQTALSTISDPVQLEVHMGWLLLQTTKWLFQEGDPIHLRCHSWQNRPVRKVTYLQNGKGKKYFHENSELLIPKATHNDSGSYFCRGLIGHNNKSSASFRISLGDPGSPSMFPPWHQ
Experimental: as §1

Human FcγRI = target: T3, Human FcγRI (human, UniProt P12314 16-288, limits assumed); test: Biacore, KD against 22B5 wild type IgG1
T3 construct: Construct used in Biacore is not described
Experimental: as §1

Human FcγRIIa/131H = target: T4, Human FcγRIIa/131H (human, UniProt P12318 36-218, limits assumed); test: Biacore, KD against 22B5 wild type IgG1
T4 construct: Polymorphic variant 131H; construct not described
T4 sequence (looked up): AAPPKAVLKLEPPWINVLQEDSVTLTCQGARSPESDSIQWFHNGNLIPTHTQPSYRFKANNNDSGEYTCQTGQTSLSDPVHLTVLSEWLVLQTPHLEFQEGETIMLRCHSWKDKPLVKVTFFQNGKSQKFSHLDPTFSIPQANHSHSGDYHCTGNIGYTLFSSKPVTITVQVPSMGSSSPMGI
Experimental: as §1

Human FcγRIIa/131R = target: T5, Human FcγRIIa/131R (human, UniProt P12318 36-218, limits assumed); test: Biacore, KD against 22B5 wild type IgG1
T5 construct: Polymorphic variant 131R; construct not described
T5 sequence (looked up): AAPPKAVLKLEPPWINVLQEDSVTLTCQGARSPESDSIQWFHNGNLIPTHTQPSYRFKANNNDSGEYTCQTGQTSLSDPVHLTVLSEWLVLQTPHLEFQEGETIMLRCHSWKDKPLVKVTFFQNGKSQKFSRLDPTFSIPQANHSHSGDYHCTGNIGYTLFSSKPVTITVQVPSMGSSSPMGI
Experimental: as §1

Human FcγRIIIa/158F = target: T6, Human FcγRIIIa/158F (human, UniProt P08637 17-208, limits assumed); test: Biacore, KD against 22B5 wild type IgG1
T6 construct: also called Human FcγRIII/158F
Experimental: as §1

Human FcγRIIIa/158V = target: T7, Human FcγRIIIa/158V (human, UniProt P08637 17-208, limits assumed); test: Biacore, KD against 22B5 wild type IgG1
T7 construct: also called Human FcγRIII/158V
Experimental: as §1

Murine FcγRI = target: T8, Murine FcγRI (murine, UniProt P26151 25-297, limits assumed); test: Biacore, KD against 22B5 wild type IgG1
T8 construct: Construct not described; also called mFcγRI
T8 sequence (looked up): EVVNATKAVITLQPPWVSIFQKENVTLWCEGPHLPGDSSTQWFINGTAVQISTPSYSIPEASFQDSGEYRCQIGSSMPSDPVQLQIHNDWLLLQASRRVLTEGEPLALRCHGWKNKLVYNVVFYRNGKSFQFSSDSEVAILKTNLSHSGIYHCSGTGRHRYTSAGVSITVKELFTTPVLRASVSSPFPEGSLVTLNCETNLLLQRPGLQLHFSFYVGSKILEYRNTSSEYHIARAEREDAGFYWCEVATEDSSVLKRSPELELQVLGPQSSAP
Experimental: as §1

[1] = target: T9, human integrin α5β1 on cells (endogenous, HUVEC; tumor or endothelial-expressed) (human, UniProt P08648 42-1049; P05556 21-798); test: FACS on HUVEC (endogenous human α5β1), GeoMean against mAb concentration, fitted; experiment 030207
T9 construct: whole, on cells; also called cell surface integrin α5; endogenous α5β1

[2] = target: T9, human integrin α5β1 on cells …; test: FACS on HUVEC (endogenous human α5β1), GeoMean against mAb concentration, fitted; experiment 031307
Experimental: The 22B5/DLE, 24C7/DLE, 1 D9/DLE, and 2D2/DLE antibodies were tested for their binding affinity to cell surface integrin α5 using a FACS assay, employing endogenous human integrin α5β1 expressing cells (HUVEC). Briefly, the cells were detached using trypsin-EDTA and washed with cold PBS. After being aliquoted into 96-well plates, the cells were blocked by serum and incubated with different concentrations of specific mAb for 1 hour at 4° C. Subsequently, the cells were washed and incubated with an anti-human κ secondary antibody conjugated with the R-PE fluorophore and analyzed using a FACSCalibur flow cytometer. 10,000 events were collected for each sample without applying any gating. For KD determination, the Geometric Mean of each sample histogram was calculated and plotted as a function of the mAb concentration. KD was calculated after fitting to a two-state equilibrium model.

T9 sequence (P08648 42-1049, chain 1 of 2): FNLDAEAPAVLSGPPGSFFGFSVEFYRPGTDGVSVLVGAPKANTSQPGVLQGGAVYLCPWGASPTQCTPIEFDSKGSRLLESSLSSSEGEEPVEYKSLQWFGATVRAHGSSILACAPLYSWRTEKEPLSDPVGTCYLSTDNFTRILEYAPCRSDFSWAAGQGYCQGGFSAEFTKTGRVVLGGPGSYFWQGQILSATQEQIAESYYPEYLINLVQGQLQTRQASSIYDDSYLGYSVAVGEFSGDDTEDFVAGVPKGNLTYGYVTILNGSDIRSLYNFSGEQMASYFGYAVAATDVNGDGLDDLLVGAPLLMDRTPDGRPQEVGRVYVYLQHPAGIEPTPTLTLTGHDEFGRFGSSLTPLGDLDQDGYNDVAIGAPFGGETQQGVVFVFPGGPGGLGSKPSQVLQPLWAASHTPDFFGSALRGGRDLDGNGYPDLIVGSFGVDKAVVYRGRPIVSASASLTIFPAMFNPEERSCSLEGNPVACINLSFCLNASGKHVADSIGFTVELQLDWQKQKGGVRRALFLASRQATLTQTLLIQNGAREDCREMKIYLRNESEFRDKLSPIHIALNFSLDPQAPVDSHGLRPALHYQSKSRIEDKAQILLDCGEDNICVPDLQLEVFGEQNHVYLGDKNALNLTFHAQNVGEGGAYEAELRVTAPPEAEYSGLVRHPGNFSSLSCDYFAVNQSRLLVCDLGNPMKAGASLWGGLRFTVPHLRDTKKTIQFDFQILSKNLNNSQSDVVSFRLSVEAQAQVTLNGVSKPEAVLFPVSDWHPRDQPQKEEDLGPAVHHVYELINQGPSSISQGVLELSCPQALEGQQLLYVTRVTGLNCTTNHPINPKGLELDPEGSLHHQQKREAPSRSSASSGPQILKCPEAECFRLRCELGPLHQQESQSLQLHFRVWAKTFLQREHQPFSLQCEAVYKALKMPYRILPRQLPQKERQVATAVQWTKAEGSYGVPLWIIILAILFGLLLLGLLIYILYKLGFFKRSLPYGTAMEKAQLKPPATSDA
T9 sequence (P05556 21-798, chain 2 of 2): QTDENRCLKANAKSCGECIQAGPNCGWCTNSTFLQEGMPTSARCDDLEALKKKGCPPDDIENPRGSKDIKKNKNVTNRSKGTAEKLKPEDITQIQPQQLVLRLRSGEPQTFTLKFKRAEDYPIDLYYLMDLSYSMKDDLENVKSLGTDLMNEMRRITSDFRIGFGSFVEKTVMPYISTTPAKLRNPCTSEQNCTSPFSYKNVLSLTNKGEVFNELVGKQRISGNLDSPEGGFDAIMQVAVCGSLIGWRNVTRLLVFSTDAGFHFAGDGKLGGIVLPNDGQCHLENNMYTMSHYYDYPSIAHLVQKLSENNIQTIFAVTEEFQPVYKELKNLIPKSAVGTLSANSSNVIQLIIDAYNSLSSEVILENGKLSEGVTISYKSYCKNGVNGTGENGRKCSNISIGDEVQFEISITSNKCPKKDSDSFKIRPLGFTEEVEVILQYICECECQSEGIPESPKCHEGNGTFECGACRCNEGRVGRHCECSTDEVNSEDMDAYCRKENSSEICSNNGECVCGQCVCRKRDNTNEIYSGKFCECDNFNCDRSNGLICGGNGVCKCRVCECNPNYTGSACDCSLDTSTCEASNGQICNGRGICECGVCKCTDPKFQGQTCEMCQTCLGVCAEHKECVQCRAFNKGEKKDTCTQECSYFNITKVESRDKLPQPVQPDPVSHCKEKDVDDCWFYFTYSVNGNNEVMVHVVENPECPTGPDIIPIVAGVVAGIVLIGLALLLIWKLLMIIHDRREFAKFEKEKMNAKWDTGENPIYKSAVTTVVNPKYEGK
T3 sequence (P12314 16-288 limits assumed): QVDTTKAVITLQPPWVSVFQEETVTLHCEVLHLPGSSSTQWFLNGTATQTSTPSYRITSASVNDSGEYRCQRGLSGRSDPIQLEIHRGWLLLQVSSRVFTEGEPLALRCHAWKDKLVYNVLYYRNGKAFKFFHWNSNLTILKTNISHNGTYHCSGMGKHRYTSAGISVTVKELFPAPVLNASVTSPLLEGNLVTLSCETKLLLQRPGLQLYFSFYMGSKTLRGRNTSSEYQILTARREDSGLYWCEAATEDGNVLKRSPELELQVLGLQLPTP
T7 sequence (P08637 17-208 F176V limits assumed): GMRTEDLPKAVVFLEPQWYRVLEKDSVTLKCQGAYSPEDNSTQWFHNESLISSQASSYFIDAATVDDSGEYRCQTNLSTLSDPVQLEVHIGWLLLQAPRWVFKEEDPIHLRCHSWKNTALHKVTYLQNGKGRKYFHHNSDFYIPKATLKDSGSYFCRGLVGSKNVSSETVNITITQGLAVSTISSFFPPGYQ
T6 sequence (P08637 17-208 limits assumed): as the sequence (P08637 17-208 F176V limits assumed) above, with V160F counted along it

Fold enhancement over wt IgG1 (Murine FcγRIII): 5 fold
Fold enhancement over wt IgG1 (Murine FcγRIV): 260 fold
Fold enhancement over wt IgG1 (Human FcγRI): 6 fold
Fold enhancement over wt IgG1 (Human FcγRIIa/131H): 1.6 fold
Fold enhancement over wt IgG1 (Human FcγRIIa/131R): 2.3 fold
Fold enhancement over wt IgG1 (Human FcγRIIIa/158F): 122 fold
Fold enhancement over wt IgG1 (Human FcγRIIIa/158V): 70 fold
Fold enhancement over wt IgG1 (Murine FcγRI): 14 fold
Kd [1]: 2.42 nM
Kd [2]: 1.99 nM
B1: 22B5/DLE (antibody, human IgG1, kappa)
heavy: QLQLQESGPGLVKPSETLSLTCTVSGGSISSSSYWGWIRQPPGKGLEWIGSIYYSGRNYNNPSLKSRVTISVDTSKNQFSLKLSSVTAADTAVYYCARHYYGSGSSYYYYDLDVWGQGTTVTVSSASTKGPSVFPLAPSSKSTSGGTAALGCLVKDYFPEPVTVSWNSGALTSGVHTFPAVLQSSGLYSLSSVVTVPSSSLGTQTYICNVNHKPSNTKVDKKVEPKSCDKTHTCPPCPAPELLGGPDVFLFPPKPKDTLMISRTPEVTCVVVDVSHEDPEVKFNWYVDGVEVHNAKTKPREEQYNSTYRVVSVLTVLHQDWLNGKEYKCKVSNKALPLPEEKTISKAKGQPREPQVYTLPPSREEMTKNQVSLTCLVKGFYPSDIAVEWESNGQPENNYKTTPPVLDSDGSFFLYSKLTVDKSRWQQGNVFSCSVMHEALHNHYTQKSLSLSPGK
light: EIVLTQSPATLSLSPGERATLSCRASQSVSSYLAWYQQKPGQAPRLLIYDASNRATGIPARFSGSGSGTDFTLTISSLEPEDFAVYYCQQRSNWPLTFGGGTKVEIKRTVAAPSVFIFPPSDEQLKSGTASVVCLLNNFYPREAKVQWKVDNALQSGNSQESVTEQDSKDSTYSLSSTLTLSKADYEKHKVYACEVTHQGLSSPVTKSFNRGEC
notes: Human IgG1 with Fc mutations S247D, A338L, I340E; the VH already holds the germline back-mutations I30S and N33S; also called 22B5 IgG1 DLE; 22B5 G1 DLE
